Reference: US20170291939A1 (Novartis, published 2017)
Each block holds one molecule with its values, some of them ahead of it.

Experiments:
[1] = biological target: T1, recombinant huIL-17A (SEQ ID NO: 76) (human, UniProt Q16552 24-155, limits assumed); assay: cell-based or functional assay
T1 sequence: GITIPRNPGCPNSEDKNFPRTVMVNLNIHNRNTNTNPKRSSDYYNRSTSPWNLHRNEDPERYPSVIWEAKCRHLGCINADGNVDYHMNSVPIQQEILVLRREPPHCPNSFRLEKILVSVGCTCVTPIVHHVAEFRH

[2] = biological target: T2, recombinant huIL-17A/F heterodimer (human, UniProt Q16552 24-155; Q96PD4 31-163, limits assumed); assay: cell-based or functional assay
T2 sequence (looked up) 1: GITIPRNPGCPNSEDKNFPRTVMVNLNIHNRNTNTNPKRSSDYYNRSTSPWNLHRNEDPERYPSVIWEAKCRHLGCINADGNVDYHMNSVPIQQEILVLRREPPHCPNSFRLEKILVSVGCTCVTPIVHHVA
T2 sequence (looked up) 2: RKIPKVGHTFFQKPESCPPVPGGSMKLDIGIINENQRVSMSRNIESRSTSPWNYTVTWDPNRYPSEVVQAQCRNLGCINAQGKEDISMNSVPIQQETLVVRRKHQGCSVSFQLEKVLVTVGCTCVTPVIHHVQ

recombinant huIL-17F = biological target: T3, recombinant huIL-17F (human, UniProt Q96PD4 31-163); assay: cell-based or functional assay
T3 sequence: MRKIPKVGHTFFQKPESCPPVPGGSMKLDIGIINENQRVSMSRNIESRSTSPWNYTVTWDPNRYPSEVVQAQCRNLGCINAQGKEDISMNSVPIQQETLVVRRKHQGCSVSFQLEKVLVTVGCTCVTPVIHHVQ

recombinant mIL-17A = biological target: T4, recombinant mIL-17A (mouse, UniProt Q62386 26-158); assay: cell-based or functional assay
T4 sequence: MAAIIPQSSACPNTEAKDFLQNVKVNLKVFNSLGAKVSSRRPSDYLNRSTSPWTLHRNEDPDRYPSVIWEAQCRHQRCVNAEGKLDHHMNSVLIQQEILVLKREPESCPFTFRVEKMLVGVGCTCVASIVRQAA

[3] = biological target: recombinant mIL-17A/F (R&D Systems Cat#5390-IL) (mouse) (UniProt Q62386); assay: cell-based or functional assay
rat IL-17A = biological target: T5, rat IL-17A (rat, UniProt Q61453 18-150); assay: cell-based or functional assay
T5 sequence: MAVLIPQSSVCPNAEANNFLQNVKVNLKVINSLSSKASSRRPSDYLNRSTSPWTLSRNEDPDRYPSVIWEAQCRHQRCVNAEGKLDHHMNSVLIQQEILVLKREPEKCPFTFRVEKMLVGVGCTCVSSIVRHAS

[4] = biological target: T6, recombinant mIL-17F (SEQ ID NO: 84) (mouse, UniProt Q7TNI7 29-161); assay: cell-based or functional assay
T6 sequence: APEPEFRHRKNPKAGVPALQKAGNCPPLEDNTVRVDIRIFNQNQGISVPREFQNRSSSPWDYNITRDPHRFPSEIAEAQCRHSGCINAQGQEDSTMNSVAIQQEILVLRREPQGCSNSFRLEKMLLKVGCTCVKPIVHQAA

BSA [5] = biological target: BSA (UniProt P02769); assay: ELISA, BSA wells, control antibody 1 µg/ml (XAB1 set)
BSA [6] = biological target: BSA (UniProt P02769); assay: ELISA, BSA wells, control antibody 5 µg/ml (XAB4 set)
[7] = biological target: T7, human IL-17A biotin (human) (UniProt Q16552); assay: SPR (Biacore), 25° C., biotinylated ligand
T7 sequence (chain, biotinylated, site not given): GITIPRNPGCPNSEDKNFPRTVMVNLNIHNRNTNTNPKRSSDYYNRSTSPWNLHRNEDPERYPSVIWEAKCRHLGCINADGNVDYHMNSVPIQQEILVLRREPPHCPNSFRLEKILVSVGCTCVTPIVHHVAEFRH

Sequence of BSA (P02769 25-607 limits assumed): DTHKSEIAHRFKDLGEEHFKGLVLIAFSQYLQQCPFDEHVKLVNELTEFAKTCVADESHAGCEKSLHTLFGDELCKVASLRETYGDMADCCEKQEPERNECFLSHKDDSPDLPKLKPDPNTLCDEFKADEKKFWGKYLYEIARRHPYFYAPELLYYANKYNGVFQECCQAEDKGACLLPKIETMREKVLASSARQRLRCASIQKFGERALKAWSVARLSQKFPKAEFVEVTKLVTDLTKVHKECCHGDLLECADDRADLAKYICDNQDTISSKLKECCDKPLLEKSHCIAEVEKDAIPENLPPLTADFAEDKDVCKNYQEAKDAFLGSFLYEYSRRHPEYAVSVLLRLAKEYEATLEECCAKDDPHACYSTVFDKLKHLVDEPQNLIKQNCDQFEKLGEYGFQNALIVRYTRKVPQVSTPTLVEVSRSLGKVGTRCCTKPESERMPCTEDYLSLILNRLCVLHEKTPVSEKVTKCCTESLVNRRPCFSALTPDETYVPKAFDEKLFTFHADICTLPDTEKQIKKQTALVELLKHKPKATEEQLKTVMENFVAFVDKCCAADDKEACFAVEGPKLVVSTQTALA

- IC50, hu-GRO-alpha secretion by BJ cells; IL-17A (30 pM) + TNF-α (6 pM) [1]: > 3 µM
- IC50, hu-GRO-alpha secretion by BJ cells; IL-17A (1 nM) [1]: > 100 nM
- IC50, huIL-6 secretion by BJ cells; rhuIL-17A (30 pM) + rhuTNF-α (6 pM) [1]: > 3 µM
- IC50, huIL-6 secretion by BJ cells; rhuIL-17A (1 nM) [1]: > 100 nM
- IC50, hu-GRO-alpha secretion by BJ cells; IL-17A/F (300 pM) + TNF-α (6 pM) [2]: > 3 µM
- IC50, hu-GRO-alpha secretion by BJ cells; IL-17A/F (3 nM) [2]: > 100 nM
- IC50, huIL-6 secretion by BJ cells; rhuIL-17A/F (300 pM) + rhuTNF-α (6 pM) [2]: > 3 µM
- IC50, huIL-6 secretion by BJ cells; rhuIL-17A/F (3 nM) [2]: > 100 nM
- IC50, hu-GRO-alpha secretion by BJ cells; IL-17F (10 nM) + TNF-α (6 pM) (recombinant huIL-17F): > 3 µM
- IC50, hu-GRO-alpha secretion by BJ cells; IL-17F (30 nM) (recombinant huIL-17F): > 1000 nM
- IC50, huIL-6 secretion by BJ cells; rhuIL-17F (10 nM) + rhuTNF-α (6 pM) (recombinant huIL-17F): > 3 µM
- IC50, huIL-6 secretion by BJ cells; rhuIL-17F (30 nM) (recombinant huIL-17F): > 1000 nM
- IC50, mouse KC secretion by CMT-93 cells; mIL-17A (1 nM) (recombinant mIL-17A): > 3000 nM
- IC50, mouse KC secretion by CMT-93 cells; mIL-17A/F (3 nM) [3]: > 3000 nM
- IC50, mouse KC secretion by CMT-93 cells; rIL-17A (1 nM) (rat IL-17A): > 3000 nM
- IC50, mouse KC secretion by CMT-93 cells; mIL-17F (30 nM) [4]: > 3000 nM
Molecule: Simulect® (1.1% solution, Batch C0011; 831179) (antibody)

- O.D. (BSA [5]): 0.149 O.D.
- O.D. (BSA [6]): 0.01 O.D.
Molecule: Control antibody (BSA wells of Table 23; not identified)

- Kd [7]: 0.00768 nM
- koff [7]: 3.46e-05 s⁻¹
- kon [7]: 4.51e+06 M⁻¹ s⁻¹
B1: XAB4T (Fab, part only; not given: CH1 and tag, part only)
heavy, part: EVQLVESGGDLVQPGGSLRLSCAASGFTFSSYWMSWVRQAPGKGLEWVANIKQDGSEKYYVDSVKGRFTISRDNAKNSLYLQMNSLRAEDTAVYYCARDRGSLYYWGQGTLVTVSSGSGGG
light: AIQLTQSPSSLSASVGDRVTITCRPSQGINWELAWYQQKPGKAPKLLIYDASSLEQGVPSRFSGSGSGTDFTLTISSLQPEDFATYYCQQFNSYPLTFGGGTKVEIKRTVAAPSVFIFPPSDEQLKSGTASVVCLLNNFYPREAKVQWKVDNALQSGNSQESVTEQDSKDSTYSLSSTLTLSKADYEKHKVYACEVTHQGLSSPVTKSFNRGEC
